The record followed here is publication doi:10.1101/2022.03.18.484870 (bioRxiv, 2022).

The chains are these.
B2: His-mSTIC2 (recombinant mature Arabidopsis thaliana STIC2, aa 49-182) (natural protein)
chain: VNGLFGGGNKDNNSEDGQSKAGIFGNMQNMYETVKKAQMVVQVEAVRVQKELAAAEFDGYCAGELVKVTLSGNQQPIRTDITEAAMELGSEKLSQLVTEAYKDAHAKSVVAMKERMSDLAQSLGMPPGLSEGMK

For experiment [1], the target named is B2. The experiment in a line: peptide or protein array.
Experiment [2] deals with B2. The experiment in a line: ITC.
Experiment [3] addresses T1, Alb4C-His (recombinant His-tagged C-terminus of Alb4, aa 334-499) (UniProt Q9FYL3 334-499).
T1 sequence: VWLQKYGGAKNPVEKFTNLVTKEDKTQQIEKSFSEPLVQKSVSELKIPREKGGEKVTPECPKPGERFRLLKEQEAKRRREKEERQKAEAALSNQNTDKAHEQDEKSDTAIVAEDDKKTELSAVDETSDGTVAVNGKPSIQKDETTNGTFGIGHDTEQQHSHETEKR
The experiment in a line: ITC.

In general, Kd refers to the concentration at which binding is half-saturated.

Turning to PKPGERFRLLKEQEA [Alb4 15mer peptide spot (aa 394-408)], the binding result in experiment [1] is recorded as “binds”.

B1: Alb3C-His (recombinant His-tagged C-terminus of Alb3, aa 350-462) (domain or fragment)
chain: VYLRKLGGAKPNMDENASKIISAGRAKRSIAQPDDAGERFRQLKEQEKRSKKNKAVAKDTVELVEESQSESEEGSDDEEEEAREGALASSTTSKPLPEVGQRRSKRSKRKRTV
As to B1, the Kd in experiment [2] came to 136 µM.

Turning to GERFRQLKEQEKRSK [Alb3 15mer peptide spot (aa 386-400)], the binding result in experiment [1] was “binds”.

As to B2, the Kd in experiment [3] was 16.6 µM.
